The record followed here is patent US20210405026A1 (CENTRE NATIONAL DE LA RECHERCHE SCIENTIFIQUE, published 2021).

One experiment has as its target T1, recombinant human CD32a (human, UniProt P12318 34-217).
T1 sequence: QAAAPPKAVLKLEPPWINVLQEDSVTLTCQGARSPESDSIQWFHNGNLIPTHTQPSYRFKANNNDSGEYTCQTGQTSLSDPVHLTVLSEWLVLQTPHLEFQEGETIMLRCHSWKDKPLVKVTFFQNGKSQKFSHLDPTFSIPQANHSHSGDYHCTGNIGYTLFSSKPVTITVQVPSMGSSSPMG
As to the kind of experiment: ELISA on recombinant human CD32a, hybridoma screening. From the text: (§1) In order to develop a specific murine monoclonal antibody against Human CD32a using a peptide antigen […] (SEQ ID NO: 40), different criteria were taken into account when designing the peptide: (1) The peptide must not include residue # 167 submitted to a strong polymorphism; (2) The peptide should be specific for CD32a vs CD32b as much as possible to avoid cross-reactivity of anti-CD32a antibody with human CD32b. Thus, a first step was the selection, design and synthesis of a relevant peptide. In order to enhance the immune response, the peptide to carrier conjugation technique (KLH) was used. The peptide thus produced was used in the immunization of 5 mice with an optimized protocol of 45 to 74 days (4-6 injections). The immune response was monitored by bleeding and titration tests (ELISA against the peptide and recombinant human CD32a and CD32b in parallel). Following the results of these tests, the spleen cells from the best mouse were fused with a mouse myeloma cell line. The culture of the hybridomas obtained was carried out in selective medium before the screens for the selection at the polyclonal stage of specific hybridomas against the peptide in ELISA (10× 96-well plates). Further screening for clones positive against recombinant human CD32a and CD32b was performed in parallel. […]
In general terms: In an ELISA, binding on a coated surface is turned into a signal by an enzyme label.

In another experiment the target is T2, recombinant human CD32b (human, UniProt P31994 46-217).
T2 sequence: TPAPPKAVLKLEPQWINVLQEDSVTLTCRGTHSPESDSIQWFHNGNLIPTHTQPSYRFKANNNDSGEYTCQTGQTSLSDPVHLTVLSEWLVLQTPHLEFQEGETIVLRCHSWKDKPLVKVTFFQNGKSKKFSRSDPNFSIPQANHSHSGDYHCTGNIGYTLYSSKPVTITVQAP
In words: ELISA on recombinant human CD32b, hybridoma screening.
From the text: as §1

B1: murine monoclonal anti-human CD32a antibody from hybridoma 8E2 (antibody, V domains shown)
VH: EVKLQESGPSLVQPGGSMNLSCVASGFTFSTHWMSWVRQSPEKGLEWIAEIRLKTDNYATHYAESVKGLFTISRDDSKSRLYLQMKSLRTEDSGIYYCTTHFAYWGQGTLV
VL: DVVMAQSPLSLPVSLGDQASISCRSSQSLVDSHGNTYLHWYLQKPGQSPKLLIYKVANRFSGVPDRFSGSGSGTDFTLKISRVEAEDLGVYFCSQSTHVPPVTFGAGTKLELK
notes: Tested as hybridoma supernatant in the ELISA screens
B1: the values for the binding result with recombinant human CD32a and with recombinant human CD32b were “binds” and “no binding”, respectively.
